What was measured:
Max(L) homodimer = Max(L) homodimer (UniProt P61244 P61244:2-160); assay: EMSA; 60 nM Max(L), 20 nM DNA; same buffer; 3jc48-3 compound IC50 60.6 uM; settings: tags: His6; chain copies: 2 (stated homodimer); label: 5'-hexachlorofluorescein
Method: (§1) EMSAs. These were performed essentially as described previously (23). Briefly, Ni⁺-agarose-purified His₆-tagged c-Myc bHLH-ZIP domain (residues 353-437) was used for all binding assays as was the His₆-tagged 151 residue isoform of Max, otherwise referred to as Max(S) (residues 2-151) (21). For each binding reaction, the proteins were allowed to heterodimerize at a concentration of 30 nM each in the presence of 20 nM of a 5′-HEX-tagged double-stranded 22-base pair oligonucleotide 5′-hexachlorofluoresceine-[…]-3′ (SEQ ID NO: 1) containing a consensus c-Myc binding site (CACGTG) and the indicated concentration of small molecule inhibitor. Control reactions contained the same oligonucleotide in the presence of 60 nM of the 160 residue isoform of Max referred to as Max(L) (21). All binding reactions were prepared in a buffer consisting of PBS (pH 7.3), 1 mmol/L EDTA, 0.1% NP40, 5% glycerol, 1 mmol/L DTT, and 0.4 mg/mL bovine serum albumin. Electrophoresis was performed on 8% polyacrylamide/bisacrylamide (80:1) gels in […] (23). Each reaction was run on at least three separate occasions.

[1] = target: c-Myc bHLH-ZIP/Max(S) heterodimer (UniProt P01106-1;P61244-2 P01106-1:353-437,P61244-2:2-151); assay: EMSA; 30 nM each protein, 20 nM DNA; PBS pH 7.3, 1 mM EDTA, 0.1% NP40, 5% glycerol, 1 mM DTT, 0.4 mg/mL BSA; binding disrupted by 3jc48-3 (compound IC50 34.8 uM); settings: tags: His6 (Myc His6-TEV tag from pET151, removed by TEV in one protocol), label: 5'-hexachlorofluorescein
Chain of c-Myc bHLH-ZIP/Max(S) heterodimer (P01106 368-452, chain 1 of 2): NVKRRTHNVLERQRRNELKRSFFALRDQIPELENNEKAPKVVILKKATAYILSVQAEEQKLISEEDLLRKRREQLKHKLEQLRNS
Chain of c-Myc bHLH-ZIP/Max(S) heterodimer (P61244 other isoform, or with tags, fused parts or gaps, chain 2 of 2): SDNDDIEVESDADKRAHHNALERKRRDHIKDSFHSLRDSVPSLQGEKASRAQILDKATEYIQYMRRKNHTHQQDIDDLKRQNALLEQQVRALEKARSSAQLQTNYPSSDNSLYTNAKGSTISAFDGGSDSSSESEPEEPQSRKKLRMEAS
Method: as §1

Chain of Max(L) homodimer (P61244 2-160, one chain of several): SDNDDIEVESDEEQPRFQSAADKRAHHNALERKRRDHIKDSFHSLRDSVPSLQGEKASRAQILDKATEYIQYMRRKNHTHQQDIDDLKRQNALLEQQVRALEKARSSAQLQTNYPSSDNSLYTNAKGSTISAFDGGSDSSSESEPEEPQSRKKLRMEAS

B1: E-box 22-bp HEX oligonucleotide (dsDNA)
DNA 1: CACCCGGTCACGTGGCCTACAC
DNA 2: GTGTAGGCCACGTGACCGGGTG
B1: binds (Max(L) homodimer); binds [1].
